From publication PMC2894018 (2010) come the findings set out here.

First the molecules themselves.
B1: HIV-1 Vpr from NL43 (Vpr^wt) fused to the N- or C-terminal fragment of Venus [HIV-1 (NL43)] / itself (parent complex)
chain: MEQAPEDQGPQREPYNEWTLELLEELKSEAVRHFPRIWLHNLGQHIYETYGDTWAGVEAIIRILQQLLFIHFRIGCRHSRIGVTRQRRARNGASRS

The assay covers variants of B1. Put plainly: BiFC (bimolecular fluorescence complementation), flow cytometry on cells; cells cotransfected with VC and VN fusions of the same Vpr mutant; vector control 0.1; parent: 35.7. On the technique in general: Flow cytometry measures light scatter and fluorescence of single cells or particles in a stream.
As to chain 1 L68E, the response came to 1.03 % BiFC positive cells.
The value for chain 1 A30L was 1.19 % BiFC positive cells.
With chain 1 H71R the figure was 1.65 % BiFC positive cells.
